Measured values reported in patent US20240270839A1 (ELPISCIENCE SUZHOU BIOPHARMA, published 2024).
Where a chain is given by its changes, count along the chain named.

Assays:
[1] = target: T1, human CLDN18.2 (hCLDN18.2), expressed on cells (human); test: FACS, HEK293/hCLDN18.2 cells
T1 construct: the constructs in the cell lines are not described; also called Claudin18.2; HEK293-hCLDN18.2

[2] = target: T1, human CLDN18.2 (hCLDN18.2), expressed …; test: FACS, SNU620 cells (endogenous CLDN18.2)
[3] = target: T1, human CLDN18.2 (hCLDN18.2), expressed …; test: FACS, SNU620 cells (endogenous CLDN18.2); FACS, SNU620 cells (native CLDN18.2)
[4] = target: T1, human CLDN18.2 (hCLDN18.2), expressed …; test: FACS, HEK293/hCLDN18.2 cells; FACS, HEK293/hCLDN18.2 cells (stable over-expression)
[5] = target: T1, human CLDN18.2 (hCLDN18.2), expressed …; test: cell-based or functional assay
[6] = target: T1, human CLDN18.2 (hCLDN18.2), expressed …; test: cell-based or functional assay; remark: listed apart in the source
[7] = target: T1, human CLDN18.2 (hCLDN18.2), expressed …; test: FACS, MFC cells over-expressing hCLDN18.2; MFC cells; first panel, run beside the hu22E12 H1 and H2 variants
[8] = target: T1, human CLDN18.2 (hCLDN18.2), expressed …; test: FACS, MFC cells over-expressing hCLDN18.2; MFC cells; second panel, run beside the hu22E12 H3 and H4 variants

B1: 33G12 (antibody, V domains shown)
VH: EVKLVESGGGLVQPGGSLKLSCAASGFTFSRYAMSWVRQTPEKRLEWVAYISIGGTTYYPDTIKGRFTISRDNAKNTLYLQMSSLKSEDTAMYYCTRHYYGHDVMDYWGQGTSVTVSS
VL: QIVLSQSPTILSASPGEKVTMTCRATSSVSYMHWFQQKPGSSPKPWIYATSNLASGVPARFSGSGSGTSYSLTISRVEAEDAATYYCQQWSRNPLTFGAGTKLELK
notes: mouse hybridoma antibody, purified; also called clone 33G12
EC50 [1]: 0.56 nM
EC50 [2]: 1.1 nM

B2: 60F11 (antibody, V domains shown)
VH: QVQLQQPGAELVKPGASVKLSCKASGYTFTSYWMHWVKQRPGQGLEWIGMIHPNSGSTNYNEKFKSKATLTVDKSSSTAYMQLSSLTSEDSAVYYCARMGLGNAMDYWGQGTSVTVSS
VL: DIVMTQSPSSLTVTAGEKVTLSCKSSQSLLNSGNQRNYLTWYQQKPGQPPKLLIYWASTRESGVPDRFTGSGSGTDFTLTISSVQAEDLAVYYCQNAYSYPLTFGAGTKLELK
notes: mouse hybridoma antibody, purified; also called clone 60F11
EC50 [3]: 3.5 nM
EC50 [4]: 0.81 nM

B3: 22E12 (antibody, V domains shown)
VH: QVQLQQPGTELVKTGTSVKLSCKASGYTFTNWVHWVIQRPGQGLEWIGEINPTNGRSNYNEKFKKKATLTLDRSSTTAYMQLSSLTSEDSAVYFCAGIYYGNSFAHWGQGTLVTVSA
VL: B2 VL with R36K, A57S, Y93H, A97N, S99Y
notes: mouse hybridoma antibody, purified; also called clone 22E12
EC50 [1]: 0.86 nM
EC50 [2]: 2.1 nM

B4: IMAB362 (Zolbetuximab) (antibody, human IgG1, kappa, V domains shown)
VH: QVQLQQPGAELVRPGASVKLSCKASGYTFTSYWINWVKQRPGQGLEWIGNIYPSDSYTNYNQKFKDKATLTVDKSSSTAYMQLSSPTSEDSAVYYCTRSWRGNSFDYWGQGTTLTVSS
VL: DIVMTQSPSSLTVTAGEKVTMSCKSSQSLLNSGNQKNYLTWYQQKPGQPPKLLIYWASTRESGVPDRFTGSGSGTDFTLTISSVQAEDLAVYYCQNDYSYPFTFGSGTKLEIKR
PBMC VS NUGC4 ADCC (EC50 nM) [5]: 25.1 nM
ADCC EC50 (nM), NK-CD16a effector cells [6]: 0.228 nM
EC50 [4]: 0.71 nM
EC50 [7]: 23.5 nM
EC50 [8]: 42.7 nM
